Data from patent US20250109212A1 (BIOSION, published 2025).

Legend:
[1] = molecular target: human CD40-Fc protein (prepared in-house) (human); experiment: competitive ELISA: human CD40-Fc coated, blocked ligand biotin-labeled human CD40L-his, OD(450-630)
Protocol: The ability of the recombinant fusion proteins of the disclosure to block CD40-CD40L binding was measured in a competitive ELISA assay. Briefly, 100 μl/well human CD40-Fc proteins (prepared in-house with amino acid sequence of SEQ ID NO: 22) were coated on 96-well micro plates at 2 μg/mL in coating buffer (carbonate/bicarbonate buffer) and incubated overnight at 4° C. The next day, the plates were washed once with wash buffer (PBS+0.05% v/v Tween-20, PBST), and then blocked with 5% w/v non-fatty milk in PBST for 2 hours at 37° C. The plates were then washed 4 times using the wash buffer.
Serially diluted recombinant fusion proteins of the disclosure or controls (starting at 10 µg/mL with a 5-fold serial dilution) in PBST with 2.5% w/v non-fatty milk were added to the CD40-Fc bound plates, 100 μl per well, and incubated at 37° C. for 40 minutes. The plates were washed 4 times using wash buffer, and then added and incubated for 40 minutes at 37° C. with 100 μl/well 95 ng/mL biotin-labeled human CD40L-his protein (Cat #: 10239-H08E, Sino biological). The plates were washed again using wash buffer, added with 100 μl/well streptavidin conjugated HRP (1:10000 dilution in PBST buffer, Cat #: 016-030-084, Jackson ImmunoResearch) and incubated for 40 minutes at 37° C. The plates were washed again using wash buffer. […] The absorbance was read on a microplate reader using the dual wavelength mode with 450 nm for TMB and 630 nm as the reference wavelength, then the OD (450-630) values were plotted against the recombinant fusion protein or controls concentration. Data was analyzed using Graphpad Prism and IC₅₀ values were reported.

[2] = molecular target: T1, human CD47-his protein (Cat #: CD7-H5227, Acro biosystems) (human, UniProt Q08722 19-139); experiment: dual-binding ELISA: human CD40-Fc coated, binder titrated, detected with human CD47-his and anti-His-HRP, OD450
T1 construct: Bought protein
Protocol: The binding activity of the recombinant fusion proteins to human CD40 and CD47 was also tested by dual-binding ELISA assay. Briefly, 100 μl/well human CD40-Fc proteins (Cat #: CD0-H5253, ACRO Biosystems) were coated on 96-well plates at 0.2 μg/mL in PBS and incubated overnight at 2-8° C. The next day, the plates were washed 3 times using wash buffer (PBS+0.05% v/v Tween-20, PBST), and then blocked with block buffer (PBS+1% w/v BSA) for 3 hours at 37° C. The plates were then washed 3 times using the wash buffer.
Serially diluted recombinant fusion proteins of the disclosure or controls (starting at 100 nM with a 6-fold serial dilution) in block buffer were added to the CD40-Fc bound plates, 100 μL per well, and incubated at 37° C. for 1 hour. The plates were washed 3 times using wash buffer, and then added and incubated for 1 hour at 37° C. with 100 μl/well 3 μg/mL human CD47-his protein (Cat #: CD7-H5227, ACRO Biosystems). The plates were washed again using wash buffer, added with 100 μl/well Anti-His tag Antibody (HRP) (1:2000 dilution in block buffer, Cat #: 105327-MM02T-H, Sino Biological) and incubated for 1 hour at 37° C. The plates were washed again using wash buffer. […] The absorbance was read using a microplate reader set to 450 nm, then the OD (450) values were plotted against the recombinant fusion protein or controls concentration. Data was analyzed using Graphpad Prism and EC₅₀ values were reported.

[3] = molecular target: T2, full length human CD40 (uniprot #P25942-1) on 293T-CD40 cells (human, UniProt P25942 21-277); experiment: FACS on 293T-CD40 cells, detection with goat anti-human IgG (Fab)-PE, MFI
T2 construct: whole, on cells
Protocol: Following an incubation of 40 minutes at 4° C. in dark, cells were washed three times and resuspended in FACS buffer. Fluorescence was measured using a Becton Dickinson FACS Canto II-HTS equipment and plotted against the recombinant fusion protein or controls concentration. Data was analyzed using Graphpad Prism and EC₅₀ values were reported.

[4] = molecular target: T3, recombinant human CD40-his protein (Cat #: CD0-H5228, Acro biosystems) (human, UniProt P25942 21-193); experiment: SPR (Biacore T200), sample on Protein A chip, antigen-his analyte, 1:1 fit
T3 construct: Bought protein
From the text: The purified recombinant fusion proteins were characterized for their binding affinity and binding kinetics by Biacore T200 system (GE healthcare, Pittsburgh, PA, USA). The anti-CD40 antibody HuCD40-C1H1-V2 (having the heavy chain and the light chain of SEQ ID NOs: 19 and 20), Selicrelumab (an agonistic anti-CD40 antibody, Roche Inc., prepared in-house with heavy and light chains of SEQ ID NOs: 27 and 28), and SIRPα-Fc fusion proteins, including SIRPαV2D1M1-Fc (IgG2) (SEQ ID NO: 21, X1=I, X2=R, X3=T, X4=K, X5=F), SIRPαV2D1M2-Fc (IgG2) (SEQ ID NO: 21, X1=I, X2=R, X3=T, X4=R, X5=V), SIRPα-isoform2-Fc (SEQ ID NO: 25) were used as positive controls.
A Protein A chip (Cat #: 29-1275-56, GE healthcare) was used for affinity determination. The recombinant fusion proteins of the disclosure and the positive controls each at the concentration of 2 μg/ml were respectively flowed onto the chip at a flow rate of 10 μl/min. Then, serially diluted recombinant human CD40-his proteins (Cat #: CD0-H5228, Acro biosystems), human CD47-his proteins (Cat #: CD7-H5227, Acro biosystems), cynomolgus CD40-his proteins (Biosion in house made, SEQ ID NO: 29) or cynomolgus CD47-his proteins (Cat #: CD7-C52H1, Acro biosystems), 2-fold dilution in HBS-EP⁺ buffer (provided by Biacore) with a starting concentration of 200 nM, were flowed onto the chip at a flow rate of 30 μl/min. The association kinetics was followed for 2 minutes and the dissociation kinetics was followed for 10 minutes. The association and dissociation curves were fit to a 1:1 Langmuir binding model using the Biacore evaluation software.

T1 sequence (Q08722 19-139 limits assumed): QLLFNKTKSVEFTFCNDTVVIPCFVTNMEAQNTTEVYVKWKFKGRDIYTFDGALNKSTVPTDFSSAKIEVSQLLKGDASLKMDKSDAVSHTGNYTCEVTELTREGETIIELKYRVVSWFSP

IC50 [1]: 1.01 nM
binding result [2]: no binding (tested: 100 nM)
EC50 [3]: 1.06 nM
Kd [4]: 1.05 nM
koff [4]: 0.00169 s⁻¹
kon [4]: 1.62e+06 M⁻¹ s⁻¹
B1: HuCD40-C1H1-V2 (antibody, human IgG2, kappa, V domains shown)
VH: EVQLVESGGGLVKPGGSLRLSCAASGFTFSNYGISWVRQAPGKGLEWVSSISSGGDNTYYPDNVKGRFTISRDNAKNSLYLQMNSLRAEDTAVYYCARAGEKAMDYWGQGTLVTVSS
VL: EIVLTQSPATLSLSPGERATLSCRASQTINNNLHWYQQKPGQAPRLLIKYASQSISGIPARFSGSGSGTDFTLTISSLEPEDFAVYFCQQFSSWPLTFGGGTKVEIKR
notes: Humanized anti-CD40 IgG with human IgG2 heavy chain constant region; also called anti-CD40 antibody HuCD40-C1H1-V2
